Columns and labels:
[1] = target: Hsp90-H210A (human) (UniProt P07900); assay: ITC; 20 mM Tris pH 7.5, 5 mM NaCl, 1 mM EDTA, 30 °C; Hsp90 listed as protein, hAha1 as ligand; at least 3 experiments
[2] = target: purified Hsp90-H210A (human) (UniProt P07900); assay: ITC; Supplementary Table 2, obtained separately: 20 mM Tris pH 7.5, 5 mM NaCl, 1 mM EDTA, 30 °C

| Kd [1] [µM] | stoichiometry N [1] | fold increase of Kd against wild-type Hsp90 [2] [fold] | Substance |
| --- | --- | --- | --- |
| 14.6 | 0.37 |  | Human Aha1 (wild-type, full-length) (from UniProt O95433 1-338) (natural protein) |
|  |  | 2 | purified full-length Aha1 (from UniProt O95433 1-338) (natural protein) |

From PMC6561935, “Hsp90 middle domain phosphorylation initiates a complex conformational program to recruit the ATPase-stimulating cochaperone Aha1” (Nature Communications, 2019)
